Columns and labels:
[1] = biological target: T1, gH/gL/UL128/UL130/UL131A pentamer complex expressed from MVA-PC in BHK-21 cells (human cytomegalovirus, UniProt P12824 24-743; P16832 31-278; P16837 28-171; P16772 1-214; F5HET4 19-129); test: FC competition, MVA-PC BHK-21; unlabelled row Ab; competitor: biotinylated 21F6
T1 construct: whole, on cells

[2] = biological target: T2, gH/gL/UL130 co-expressed from MVA in BHK-21 cells (human cytomegalovirus, UniProt P12824 24-743; P16832 31-278; P16772 1-214); test: intracellular FC, MVA-infected BHK-21
T2 construct: whole, on cells
Procedure: (§1) NAb subunit specificity was evaluated by staining BHK-21 cells infected with different MVA recombinants. One or more vectors were used to co-infect BHK-21 at an MOI of 5. […] Four hours post infection cells were fixed and permeabilized using Cytofix/Cytoperm solution (BD Biosciences). NAbs (1 mg/ml) were diluted 1:500 in perm/wash buffer (BD) and added to the cells for 1 hour at 4° C. […] Cells were washed again and resuspended in PBS/0.1% BSA. Fifteen thousand events were collected using the Gallios Flow Cytometer (Beckman Coulter, Miami, Fla., USA) and analyzed with FlowJo Software (Tree Star, Ashland, Oreg., USA). Uninfected cells and cells infected with MVA-Venus were used as controls. GFP expression was analyzed for confirming MVA infection since all the constructs contain a GFP expression cassette (36, 62).
(§2) In order to determine the antigen specificity of the vaccine-derived NAbs, intracellular flow cytometry (FC) staining of permeabilized BHK-21 cells infected with MVA expressing single subunits or combinations of two or more subunits of the PC was evaluated.

[3] = biological target: T3, UL131A expressed from MVA in BHK-21 cells (human cytomegalovirus, UniProt F5HET4 19-129); test: intracellular FC, MVA-infected BHK-21
T3 construct: whole, on cells
Procedure: as §1, §2

[4] = biological target: T4, gH/gL/UL131A co-expressed from MVA in BHK-21 cells (human cytomegalovirus, UniProt P12824 24-743; P16832 31-278; F5HET4 19-129); test: intracellular FC, MVA-infected BHK-21
T4 construct: whole, on cells
Procedure: as §1, §2

[5] = biological target: T5, UL130 expressed from MVA in BHK-21 cells (human cytomegalovirus, UniProt P16772 1-214); test: intracellular FC, MVA-infected BHK-21
T5 construct: whole, on cells
Procedure: as §1, §2

[6] = biological target: T6, gH/gL co-expressed from MVA in BHK-21 cells (human cytomegalovirus, UniProt P12824 24-743; P16832 31-278); test: intracellular FC, MVA-infected BHK-21
T6 construct: whole, on cells
Procedure: as §1, §2

[7] = biological target: T7, gH expressed from MVA in BHK-21 cells (human cytomegalovirus, UniProt P12824 24-743); test: intracellular FC, MVA-infected BHK-21
T7 construct: whole, on cells
Procedure: as §1, §2

[8] = biological target: T8, UL130/UL131A co-expressed from MVA in BHK-21 cells (human cytomegalovirus, UniProt P16772 1-214; F5HET4 19-129); test: intracellular FC, MVA-infected BHK-21
T8 construct: whole, on cells
Procedure: as §1, §2

[9] = biological target: T9, gH/gL/UL130/UL131A co-expressed from MVA in BHK-21 cells (human cytomegalovirus, UniProt P12824 24-743; P16832 31-278; P16772 1-214; F5HET4 19-129); test: intracellular FC, MVA-infected BHK-21
T9 construct: whole, on cells
Procedure: as §1, §2

[10] = biological target: T1, gH/gL/UL128/UL130/UL131A pentamer …; test: FC, biotinylated NAb titrated on MVA-PC-infected BHK-21 (cell surface PC)
[11] = biological target: T1, gH/gL/UL128/UL130/UL131A pentamer …; test: FC competition, MVA-PC BHK-21; unlabelled row Ab; competitor: biotinylated 54E11
[12] = biological target: T1, gH/gL/UL128/UL130/UL131A pentamer …; test: FC competition, MVA-PC BHK-21; unlabelled row Ab; competitor: biotinylated 12E2
[13] = biological target: T1, gH/gL/UL128/UL130/UL131A pentamer …; test: FC competition, MVA-PC BHK-21; unlabelled row Ab; competitor: biotinylated 13B5
KLH-K16CS = biological target: T10, KLH-K16CS; test: ELISA with KLH-coupled peptides (FIG. 11A)
T10 peptide: KHKRLDVSRAKMGYMC

KLH-K15M = biological target: T11, KLH-K15M (human cytomegalovirus); test: ELISA with KLH-coupled peptides (FIG. 11A)
T11 peptide: KHKRLDVCRAKMGYM

KLH-K14CS = biological target: T12, KLH-K14CS; test: ELISA with KLH-coupled peptides (FIG. 11A)
T12 peptide: KRLDVSRAKMGYMC

[14] = biological target: T1, gH/gL/UL128/UL130/UL131A pentamer …; test: FC competition, MVA-PC BHK-21; unlabelled row Ab; competitor: biotinylated 18F10
[15] = biological target: gH/gL/UL128/UL130/UL131A pentamer complex (PC) of HCMV strain TB40/E virus (human cytomegalovirus strain TB40/E); test: cell-based or functional assay
[16] = biological target: gH/gL/UL128/UL130/UL131A pentamer complex (PC) of HCMV strain TR virus (human cytomegalovirus strain TR); test: cell-based or functional assay
[17] = biological target: T1, gH/gL/UL128/UL130/UL131A pentamer …; test: FC competition, MVA-PC BHK-21; unlabelled row Ab; competitor: biotinylated 1B2

B1: 13B5 (antibody, V domains shown)
VH: QVTLKESGPGILKPSQTLSLTCSFSGFSLTTSGLGVGWIRQPSGKGLEWLAHIWWDDDKYFNPSLRNQLTISKDTSRNQVFLEITSVTTADTATYYCVRSLYDYDEGYYFDSWGQGTTLTVSS
VL: EIVMIQSPATLSVNPGDRVSLSCRASQSISDYLHWYQQKSHESPRLLIKYASQSISGIPSRFSGSGSGSDFTLSINSVEPEDVGVYYCQNGHTFPPTFGGGTKLEIK
notes: also called NAb 13B5; 1365
Binding Inhibition (%) [1]: 0% | binding result [2]: no binding | binding result [3]: no binding | binding result [4]: no binding | binding result [5]: no binding | binding result [6]: no binding | binding result [7]: no binding | binding result [8]: no binding | binding result [9]: no binding | EC50 [10]: 0.68 nM | Binding Inhibition (%) [11]: 0% | Binding Inhibition (%) [12]: 0% | Binding Inhibition (%) [13]: 100% | binding result (KLH-K16CS): binds | binding result (KLH-K15M): binds | binding result (KLH-K14CS): binds | Binding Inhibition (%) [14]: 0% | IC50, inhibition of TB40/E cell-to-cell spread in ARPE-19 [15]: 22 µg/mL | IC50, neutralization of TB40/E infection of ARPE-19 [15]: 0.015 µg/mL | IC50, neutralization of TB40/E infection of CTB [15]: 0.0998 µg/mL | IC50, neutralization of TB40/E infection of HUVEC [15]: 0.012 µg/mL | IC50, neutralization of TB40/E infection of MRC-5 [15]: > 25 µg/mL | IC50, inhibition of TR cell-to-cell spread in ARPE-19 [16]: 21 µg/mL | IC50, neutralization of TR infection of ARPE-19 [16]: 0.0199 µg/mL | IC50, neutralization of TR infection of HUVEC [16]: 0.0077 µg/mL | IC50, neutralization of TR infection of MRC-5 [16]: > 25 µg/mL | Binding Inhibition (%) [17]: 0%
